Laboratory results taken from article PMC5727386, “Structural and functional dissection of the DH and PH domains of oncogenic Bcr-Abl tyrosine kinase” (Nature Communications, 2017).
Values belong to the binder of their own block, whether it stands above or below them.

How the values were obtained:
[1] = target: T1, biotinylated Bcr-Abl PH domain (Avi-tag) (UniProt P11274 704-893, biotin on the Avi-tag); assay: flow cytometry on cells; monobody displayed on yeast surface; biotinylated target 10 nM to 1 uM in TBS with 0.1% BSA, 30 min at RT; streptavidin-DyLight650; 1:1 binding model; apparent Kd; conditions: one partner purified
T1 construct: Bcr part of Bcr-Abl p210, Pleckstrin-homology domain, residues 704-893; Cloned in pHBT1; the limits are those stated for the PH domain construct; also called biotinylated PH; source: E. coli BL21(DE3), co-expressed with BirA and 50 uM biotin, purified; not shown: Avi-tag, N-terminal, kept
T1 sequence (looked up): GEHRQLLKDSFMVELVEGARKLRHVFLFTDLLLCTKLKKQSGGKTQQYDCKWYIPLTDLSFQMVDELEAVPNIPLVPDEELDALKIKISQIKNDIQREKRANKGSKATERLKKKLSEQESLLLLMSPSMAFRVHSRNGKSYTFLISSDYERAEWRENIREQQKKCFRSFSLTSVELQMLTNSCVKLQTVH

[2] = target: T2, biotinylated Bcr-Abl DH-PH tandem domain (Avi-tag) (UniProt P11274 487-893, biotin on the Avi-tag); assay: as above; conditions: one partner purified
T2 construct: Bcr part of Bcr-Abl p210, DH-PH tandem domain, residues 487-893; Cloned in pHBT1, which for the monobodies is said to give an N-terminal His- and Avi-tag followed by a TEV site; also called biotinylated DH-PH domain; source: E. coli BL21(DE3), co-expressed with BirA and 50 uM biotin, purified; not shown: Avi-tag, N-terminal, kept
T2 sequence (looked up): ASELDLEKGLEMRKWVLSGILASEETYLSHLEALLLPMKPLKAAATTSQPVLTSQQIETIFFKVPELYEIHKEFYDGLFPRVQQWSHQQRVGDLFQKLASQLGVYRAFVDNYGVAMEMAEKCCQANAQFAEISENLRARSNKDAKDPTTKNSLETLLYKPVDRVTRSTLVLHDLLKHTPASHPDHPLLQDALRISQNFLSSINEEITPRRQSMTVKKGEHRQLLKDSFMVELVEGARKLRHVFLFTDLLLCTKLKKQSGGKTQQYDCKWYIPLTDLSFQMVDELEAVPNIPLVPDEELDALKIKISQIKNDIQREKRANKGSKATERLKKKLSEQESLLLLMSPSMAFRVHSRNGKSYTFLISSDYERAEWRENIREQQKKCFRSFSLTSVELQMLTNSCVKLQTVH

[3] = target: T3, Bcr-Abl DH domain (residues 487-702); assay: ITC; monobody (200 uM stock) titrated to the DH domain (20 uM) at 25 °C; 25 mM HEPES pH 7.5, 150 mM NaCl, 0.5 mM TCEP; 1:1 binding model; conditions: both partners purified
T3 construct: Bcr part of Bcr-Abl p210, Dbl-homology domain, residues 487-702; 15N-labelled for the NMR experiments; also called Bcr DH; source: E. coli Rosetta(DE3), purified (Ni-NTA, TEV cleavage, reverse Ni, SEC); not shown: His-tag, N-terminal, cleaved
T3 chain: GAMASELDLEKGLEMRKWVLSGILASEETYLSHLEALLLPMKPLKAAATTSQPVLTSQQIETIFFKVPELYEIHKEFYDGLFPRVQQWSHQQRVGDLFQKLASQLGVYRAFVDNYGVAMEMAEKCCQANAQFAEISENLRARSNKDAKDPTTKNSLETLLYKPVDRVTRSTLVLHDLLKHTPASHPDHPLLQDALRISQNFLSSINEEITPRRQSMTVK

B2: monobody Mb(Bcr-DH_4), displayed on yeast surface (designed binder)
chain: VSSVPTKLEVVAATPTSLLISWDAPAVTVDLYVITYGETGGNSPVQEFEVPGSKSTATISGLKPGVDYTITVYAGSYAYEYYWGPSPISINYRT
notes: monobody on the fibronectin type III scaffold, side-and-loop library
- Kd [2]: 20 ± 7 nM

B3: monobody Mb(Bcr-DH_4), purified (designed binder)
chain: B2 chain
notes: monobody on the fibronectin type III scaffold, side-and-loop library; also called Mb(DH_4); S10; source: E. coli BL21(DE3), purified; not shown: His-tag, N-terminal, cleaved; Avi-tag, N-terminal, cleaved
- Kd [3]: 14.5 ± 8.6 nM
- stoichiometry N [3]: 0.94

B5: monobody Mb(Bcr-DH_3), displayed on yeast surface (designed binder)
chain: VSSVPTKLEVVAATPTSLLISWDAPAVTVDLYVITYGETGGNSPVQAFEVPGSKSTATISGLKPGVDYTITVYAGSETYRGYWSPISINYRT
notes: as for B2
- Kd [2]: 18 ± 5 nM

B6: monobody Mb(Bcr-DH_3), purified (designed binder)
chain: B5 chain
notes: monobody on the fibronectin type III scaffold, side-and-loop library; also called Mb(DH_3); source: E. coli BL21(DE3), purified; not shown: His-tag, N-terminal, cleaved; Avi-tag, N-terminal, cleaved
- Kd [3]: 2.1 nM
- stoichiometry N [3]: 0.78

Second part, the binder after the results:

- Kd [1]: 46 ± 10 nM
B1: monobody Mb(Bcr-PH_2), displayed on yeast surface (designed binder)
chain: VSSVPTKLEVVAATPTSLLISWDAPAVTVVFYVITYGETGGNSPVQEFTVPGSKSTATISGLKPGVDYTITVYAEYYGYTSSPISINYRT
notes: as for B2

- Kd [1]: 63 ± 12 nM
B4: monobody Mb(Bcr-PH_3), displayed on yeast surface (designed binder)
chain: VSSVPTKLEVVAATPTSLLISWDAPAVTVVFYVITYGETGGNSPVQEFTVPGSKSTATISGLKPGVDYTITVYAEYYGYSGWQSPISINYRT
notes: as for B2
